Experimental data reported in paper PMC12809092 (2025).

Key:
[1] = target: T1, PLXNA1-LBD, recombinant human plexinA1 ligand-binding domains (human, UniProt Q9UIW2 27-710); test: BLI
T1 chain: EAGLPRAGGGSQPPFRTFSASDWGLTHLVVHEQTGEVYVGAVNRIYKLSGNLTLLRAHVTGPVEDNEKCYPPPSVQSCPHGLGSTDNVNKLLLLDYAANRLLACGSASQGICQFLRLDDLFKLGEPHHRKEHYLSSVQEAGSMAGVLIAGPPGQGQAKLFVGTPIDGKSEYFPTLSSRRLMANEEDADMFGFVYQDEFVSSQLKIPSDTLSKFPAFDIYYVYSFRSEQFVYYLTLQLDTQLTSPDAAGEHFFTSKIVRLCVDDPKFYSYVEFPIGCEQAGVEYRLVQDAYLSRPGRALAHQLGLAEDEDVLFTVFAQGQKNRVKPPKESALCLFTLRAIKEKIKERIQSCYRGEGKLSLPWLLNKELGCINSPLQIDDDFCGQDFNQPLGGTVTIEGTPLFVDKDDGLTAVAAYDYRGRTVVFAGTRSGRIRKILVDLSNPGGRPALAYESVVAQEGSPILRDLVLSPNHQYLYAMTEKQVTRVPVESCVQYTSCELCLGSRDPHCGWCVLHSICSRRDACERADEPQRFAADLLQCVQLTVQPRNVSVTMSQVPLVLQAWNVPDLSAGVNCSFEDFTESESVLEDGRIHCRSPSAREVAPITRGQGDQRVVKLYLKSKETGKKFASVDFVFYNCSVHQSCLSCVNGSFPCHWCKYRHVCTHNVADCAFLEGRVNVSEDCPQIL

[2] = target: PLXNA1-ECD, recombinant human plexinA1 full extracellular domains (human, UniProt Q9UIW2 27-1244); test: BLI

B1: aPLXNA1-19-43 Fab (Fab, V domains shown)
VH: EVQLQQSGPELVKPGASVKISCKASGYKFTENYMDWVKQSHGESLEWIGDISPDNGDTSYNQKFRDKATLTVDKSSSTAYMELRSLTSEDSAVYYCAQIIYYDYVGYALDYWGQGTSVTVSS
VL: QIVLTQSPAILSASPGEKVTMSCSVSSSITYMHWYQQKPGTSPKRWIYDTSKLASGVPARFSGSGSGTSFSLTISNMEAEDAATYYCHQRSSYPYSFGGGTKLEIK
**Q.** For B1, which koff [1] is on record?
**A.** The koff was 0.000252 s⁻¹.

**Q.** And the koff [2]?
**A.** Its koff is 0.000111 s⁻¹.
